Experimental data from patent US20250026820A1 (WUHAN YZY BIOPHARMA, published 2025).

T1: TGFβ2 protein (GenScript Z03429) (human, UniProt P61812 303-414)
T1 construct: also called human TGF-β2
T1 sequence (looked up): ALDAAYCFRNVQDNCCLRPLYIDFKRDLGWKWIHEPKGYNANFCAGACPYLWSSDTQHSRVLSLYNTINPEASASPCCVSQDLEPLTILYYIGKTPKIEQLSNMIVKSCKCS

T2: TGFβ3 protein (GenScript Z03430) (human, UniProt P10600 301-412)
T2 construct: also called human TGF-β3
T2 sequence (looked up): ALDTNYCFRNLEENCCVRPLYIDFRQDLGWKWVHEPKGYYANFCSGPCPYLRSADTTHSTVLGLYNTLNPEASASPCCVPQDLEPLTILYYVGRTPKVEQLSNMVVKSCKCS


Experiments:
BSA = BSA (UniProt P02769); assay: ELISA; plate coated with BSA (control); E. coli supernatant; HRP anti-VHH
Sequence of BSA (P02769 25-607 limits assumed): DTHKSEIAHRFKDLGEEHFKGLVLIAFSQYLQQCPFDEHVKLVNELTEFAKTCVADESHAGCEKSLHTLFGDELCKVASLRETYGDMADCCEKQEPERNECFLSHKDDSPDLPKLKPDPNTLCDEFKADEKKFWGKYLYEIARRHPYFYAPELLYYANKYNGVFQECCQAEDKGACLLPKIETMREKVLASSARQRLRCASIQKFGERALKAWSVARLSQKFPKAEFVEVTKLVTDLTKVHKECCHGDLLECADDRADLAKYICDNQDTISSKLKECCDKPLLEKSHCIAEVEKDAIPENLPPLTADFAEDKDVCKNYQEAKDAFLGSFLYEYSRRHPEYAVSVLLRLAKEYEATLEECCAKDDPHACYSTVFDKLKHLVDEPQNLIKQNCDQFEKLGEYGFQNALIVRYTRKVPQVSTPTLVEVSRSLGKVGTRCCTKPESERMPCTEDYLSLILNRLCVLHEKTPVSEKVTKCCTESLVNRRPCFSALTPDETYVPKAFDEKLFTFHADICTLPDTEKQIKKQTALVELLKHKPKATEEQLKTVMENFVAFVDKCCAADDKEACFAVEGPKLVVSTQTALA

[1] = biological target: T3, TGFβ1 protein (GenScript Z03411) (human, UniProt P01137 279-390); assay: ELISA; plate coated with TGFβ1; E. coli supernatant; HRP anti-VHH
T3 construct: also called human TGF-β1; TGFβ1 antigen
T3 sequence (P01137 279-390 limits assumed, one chain of several): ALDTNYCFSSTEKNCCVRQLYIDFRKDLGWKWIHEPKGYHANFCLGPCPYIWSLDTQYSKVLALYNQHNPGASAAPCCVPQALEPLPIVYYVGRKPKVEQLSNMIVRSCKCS
Description: A microplate was coated with 2 μL/well of the TGFβ1 protein solution and BSA, respectively, at 4° C. overnight; the supernatant was discarded, 300 μL of a blocking solution (PBS containing 3% BSA) was added to each well, and the plate was blocked at 37° C. for 2 h; the supernatant collected by centrifugation was added to the well of the microplate at 200 μL per well, the plate was left to stand and incubated at room temperature for 2 h, and the supernatant was discarded; the plate was washed for 3 times with 200 μL/well PBST (PBS containing 0.1% Tween 20); a diluted HRP-labeled anti-VHH secondary antibody (Genscript, A01861) was added, the secondary antibody was used after a 1:10000 dilution, the diluent was PBS containing 1% BSA, the volume was 100 μL/well, and the plate was incubated at room temperature for 1 h; the plate was washed for 5 times with 200 μL/well PBST; a TMB chromogenic solution (BD, 55214) was added at 100 μL/well for color development at 37° C. for 8 min. 2 M HCl stop solution was added at 100 μL/well. After the addition of the stop solution, the 450 nm values were read using a microplate reader within 30 min.

[2] = biological target: T1, TGFβ2 protein (GenScript Z03429); assay: ELISA; plate coated with human TGF-β2; antibody titrated; HRP anti-human Fc
Description: (§1) A microplate was coated with 2 μL/well of the human TGF-β1/2/3 protein solution, respectively, at 4° C. overnight; the supernatant was discarded, 300 μL of a blocking solution (PBS containing 3% BSA) was added to each well, and the plate was blocked at 37° C. for 2 h; the antibodies were gradiently diluted, and the diluent was PBS containing 1% BSA. For example, the initial concentration of the antibody dilution was 500 nM, and diluted 10-fold to obtain 8 concentration gradients. The diluted antibody was added to the well of the microplate at 200 μL per well, the plate was left to stand and incubated at room temperature for 2 h, and the supernatant was discarded; the plate was washed for 3 times with 200 μL/well PBST (PBS containing 0.1% Tween 20); a diluted HRP-labeled anti-human Fc secondary antibody (SIGMA, A8667) was added, the secondary antibody was used after a 1:20000 dilution, the diluent was PBS containing 1% BSA, the volume was 100 μL/well, and the plate was incubated at room temperature for 1 h; the plate was washed for 5 times with 200 μL/well PBST; a TMB chromogenic solution (BD, 55214) was added at 100 μL/well for color development at 37° C. for 8 min. 2 M HCl stop solution was added at 100 μL/well. After the addition of the stop solution, the 450 nm values were read using a microplate reader within 30 min. Data were analyzed using GraphPad Prism 6.0 software and avidity fitting was performed to give EC50 values.

[3] = biological target: T2, TGFβ3 protein (GenScript Z03430); assay: ELISA; plate coated with human TGF-β3; antibody titrated; HRP anti-human Fc
Description: as §1

[4] = biological target: T3, TGFβ1 protein (GenScript Z03411); assay: ELISA; plate coated with human TGF-β1; antibody titrated; HRP anti-human Fc
Description: as §1

| Binder | OD value of binding to BSA (BSA) | OD value of binding to TGFβ1 [1] | EC50 [2] | EC50 [3] | EC50 [4] |
| --- | --- | --- | --- | --- | --- |
| B3D2 heavy chain single-domain antibody (VHH, Tested as crude supernatant of IPTG-induced E. coli TG1 carrying the pComb3XSS clone) VHH: QLQLVESGGGLVQPGGSLTLSCLASGFTFSHYPMSWVRQAPGKGLEWVSVIGSDGAIKHYSDSVKGRFAISRDNAKNTLYLQMNSLKPEDTAVYYCAEGDSRYVRNRARGQGTQVTVSS | 0.061 OD 450 nm | 1.99 OD 450 nm |  |  |  |
| B3C5 heavy chain single-domain antibody (VHH) VHH: QLQLVESGGGLVQPGGSLTLSCAASGFTFSHYPMSWVRQAPGKGLEWVSVIGSDGGTKIYSDSVKGRFAIARDNAKNTLYLQMNSLKPEDTAVYYCAEGDSRYVRGRTRGQGTQVTVSS | 0.051 OD 450 nm |  |  |  |  |
| B3F1 heavy chain single-domain antibody (VHH) VHH: QLQLVESGGGLVQPGGSLTLSCAASGFTFSLYPMSWVRQAPGKGLEWVSVIGSDGGTKHYSDSVKGRFAISRDNAKNTLYLQMNSLKPEDTAVYYCAEGDSRYVRGRTRGQGTQVTVSS | 0.051 OD 450 nm |  |  |  |  |
| B3F1 anti-TGFβ single domain heavy-chain antibody (variable region, linker peptide, human IgG1 heavy chain constant region) (Fc fusion, not shown: linker peptide (GGGGS)n, n=1, 2 or 3; human IgG1 heavy chain constant region, GenBank No. AK303185.1) heavy: QLQLVESGGGLVQPGGSLTLSCAASGFTFSLYPMSWVRQAPGKGLEWVSVIGSDGGTKHYSDSVKGRFAISRDNAKNTLYLQMNSLKPEDTAVYYCAEGDSRYVRGRTRGQGTQVTVSS |  |  | 148 nM | 1.33 nM |  |
| B3C5 anti-TGFβ single domain heavy-chain antibody (variable region, linker peptide, human IgG1 heavy chain constant region) (Fc fusion, not shown: linker peptide (GGGGS)n, n=1, 2 or 3; human IgG1 heavy chain constant region, GenBank No. AK303185.1) heavy: QLQLVESGGGLVQPGGSLTLSCAASGFTFSHYPMSWVRQAPGKGLEWVSVIGSDGGTKIYSDSVKGRFAIARDNAKNTLYLQMNSLKPEDTAVYYCAEGDSRYVRGRTRGQGTQVTVSS |  |  | 3.52 nM | 1.35 nM |  |
| B2A1 heavy chain single-domain antibody (VHH, Tested as crude supernatant of IPTG-induced E. coli TG1 carrying the pComb3XSS clone) VHH: QVQLVESGGGLVQPGGSLRLSCAASGITFSHYDMAWFRQAPEKQRELVALITSGGKTAYADSVKGRFAISRDNAKNTVYLQMNSLKAGDTAVYYCNAHWVLTSQYWGQGTQVTVSS | 0.057 OD 450 nm | 1.29 OD 450 nm |  |  |  |
| B2A1 anti-TGFβ single domain heavy-chain antibody (variable region, linker peptide, human IgG1 heavy chain constant region) (Fc fusion, not shown: linker peptide (GGGGS)n, n=1, 2 or 3; human IgG1 heavy chain constant region, GenBank No. AK303185.1) heavy: QVQLVESGGGLVQPGGSLRLSCAASGITFSHYDMAWFRQAPEKQRELVALITSGGKTAYADSVKGRFAISRDNAKNTVYLQMNSLKAGDTAVYYCNAHWVLTSQYWGQGTQVTVSS |  |  | 1.07 nM | 1.25 nM | 3.82 nM |
| B2H1 heavy chain single-domain antibody (VHH, Tested as crude supernatant of IPTG-induced E. coli TG1 carrying the pComb3XSS clone) VHH: QLQLVESGGGLVQPGESLRLSCAASGIIFSASTMAWFRQAPGKQRELVALITDGDRTNYADSVKGRFTISRDNAENTVYLQMTELKFEDTAVYYCNAFWLKAYWGQGTQVTVSS | 0.057 OD 450 nm | 2.06 OD 450 nm |  |  |  |
| B2A2 heavy chain single-domain antibody (VHH, Tested as crude supernatant of IPTG-induced E. coli TG1 carrying the pComb3XSS clone) VHH: EVQVVESGGAAVQPGESLRLSCAASGSIFNTATMGWFRQAPGKQREMVAIITDGGRTNYADSVKGRFTISRDATKNTVYLQMNSLNPGDTAVYYCNALTIVPRSSIYWGQGTQVTVSS | 0.064 OD 450 nm | 1.69 OD 450 nm |  |  |  |
| B2A9 heavy chain single-domain antibody (VHH, Tested as crude supernatant of IPTG-induced E. coli TG1 carrying the pComb3XSS clone) VHH: QLQLVESGGGLVQPGGSLRLSCTASGSTFEIYPIYAMAWFRQTPGKQRELVALTTDVKTNYADSVKGRFTISRDNAKNTVYLQMNMLQPEDTAVYVCNVGVVRGGLQNYWGQGTQVTVSS | 0.061 OD 450 nm | 1.92 OD 450 nm |  |  |  |
| B2A9 anti-TGFβ single domain heavy-chain antibody (variable region, linker peptide, human IgG1 heavy chain constant region) (Fc fusion, not shown: linker peptide (GGGGS)n, n=1, 2 or 3; human IgG1 heavy chain constant region, GenBank No. AK303185.1) heavy: QLQLVESGGGLVQPGGSLRLSCTASGSTFEIYPIYAMAWFRQTPGKQRELVALTTDVKTNYADSVKGRFTISRDNAKNTVYLQMNMLQPEDTAVYVCNVGVVRGGLQNYWGQGTQVTVSS |  |  | 1.25 nM | 1.46 nM | 5.43 nM |
| B1F8 heavy chain single-domain antibody (VHH, Tested as crude supernatant of IPTG-induced E. coli TG1 carrying the pComb3XSS clone; also called BIF8) VHH: QVQLVESGGGLVQPGGSLRLSCAASGSIFGVFYMGWFRQAPGKQREMVAISTDDRTSYVDSVKGRFTISRDNAKNTLALQMNSLKPEDTAVYFCNLNQLGTDYWGPGTQVTVSS | 0.07 OD 450 nm | 1.03 OD 450 nm |  |  |  |
| B3F3 heavy chain single-domain antibody (VHH, Tested as crude supernatant of IPTG-induced E. coli TG1 carrying the pComb3XSS clone) VHH: QVQLVESGGGLVQPGESLRLSCTASGSIFGVFYMGWFRQAPGKQRDMVAISTDDRTSYADSVKGRFTISRDNAKNTLALQMNSLKPEDTAVYFCNLNQLGTDYWGPGTQVTVSS | 0.071 OD 450 nm | 2.29 OD 450 nm |  |  |  |
| B2F6 heavy chain single-domain antibody (VHH) VHH: EVQLVESGGGLVQPGGSLRLSCAASGFTFSYYVASWYRQAPGKERELVATTFPPDGSPHYADSVKGRFAISRDNAKNTVFLQMDSLKSEDTAVYYCNARRVEGHGIYWGQGTQVTVSS | 0.053 OD 450 nm |  |  |  |  |
| B2F6 anti-TGFβ single domain heavy-chain antibody (variable region, linker peptide, human IgG1 heavy chain constant region) (Fc fusion, not shown: linker peptide (GGGGS)n, n=1, 2 or 3; human IgG1 heavy chain constant region, GenBank No. AK303185.1) heavy: EVQLVESGGGLVQPGGSLRLSCAASGFTFSYYVASWYRQAPGKERELVATTFPPDGSPHYADSVKGRFAISRDNAKNTVFLQMDSLKSEDTAVYYCNARRVEGHGIYWGQGTQVTVSS |  |  | 0.774 nM | 1.03 nM |  |
| B1B7 heavy chain single-domain antibody (VHH, Tested as crude supernatant of IPTG-induced E. coli TG1 carrying the pComb3XSS clone) VHH: QVQLVESGGGLVQPGGSLTLSCTASGSMFSFYTMGWYRQATGKQRELVAGISLGGETTYAPSVKDRFTISRDNAKNTVYLQMNSLKPEDTALYNCNAYWGEDYWGQGTQVTVSS | 0.067 OD 450 nm | 1.95 OD 450 nm |  |  |  |
| B3D6 heavy chain single-domain antibody (VHH, Tested as crude supernatant of IPTG-induced E. coli TG1 carrying the pComb3XSS clone) VHH: EVQLVESGGGLVQAGGSLRLSCAASGRSFSSLAVGWFRQPPGKKREIVAAVNWSGTSTYYPDSVKGRFSISRDNTKNTVYLQMNSLKPEDTAVYYCAADPDLRWLKLWGYEYWGQGTQVTVSS | 0.067 OD 450 nm | 1.65 OD 450 nm |  |  |  |
| B2G8 heavy chain single-domain antibody (VHH, Tested as crude supernatant of IPTG-induced E. coli TG1 carrying the pComb3XSS clone) VHH: QVQLVESGGGLVQPGGSLRLSCAASGISFSYYDMGWFRQAPGKQRELVAIVTSGGRTNYADSVKGRFTISRETAKSTMYLQMNSLKSEDTGVYYCNAHWIVTTDYWGQGTQVTVAS | 0.064 OD 450 nm | 1.85 OD 450 nm |  |  |  |
| B2C9 heavy chain single-domain antibody (VHH, Tested as crude supernatant of IPTG-induced E. coli TG1 carrying the pComb3XSS clone) VHH: EVQVVESGGGLVQPGGSLRLSCAASASVFSWSVMGWFRQAPGKQRELVAISSGDRETYADSVKGRFTISRDNAKNTVYLQMDTLKPEDTAVYFCNAYVPVGESRGDYWGQGTQVTVSS | 0.055 OD 450 nm | 1.88 OD 450 nm |  |  |  |
| B1B8 heavy chain single-domain antibody (VHH, Tested as crude supernatant of IPTG-induced E. coli TG1 carrying the pComb3XSS clone) VHH: EVQVVESGGGLVQPGGSLTLSCVASGFAFSFTPMRWVRQAPGKGLEWVSSISIRGDTTDYADSVKGRFTISRDNAKNTLYLQMNSLKPEDTAVYYCSRGSSISTSTERTQGTQVTVSS | 0.063 OD 450 nm | 1.92 OD 450 nm |  |  |  |
| B1C5 heavy chain single-domain antibody (VHH, Tested as crude supernatant of IPTG-induced E. coli TG1 carrying the pComb3XSS clone) VHH: EVQLVESGGGEVRPGGSLRLSCVVSGFTKDYGAIGWFRQAPGQEREGLGCIARKDGDTWSADSVKGRFTISRDNVRNTVYLQMNALKPEDRGVYYCAGDPSALYGCSDRSSEYQYWGQGTQVTVSS | 0.052 OD 450 nm | 2.08 OD 450 nm |  |  |  |
| B2C2 heavy chain single-domain antibody (VHH, Tested as crude supernatant of IPTG-induced E. coli TG1 carrying the pComb3XSS clone) VHH: QLQLVESGGGLVQPGGSLRLSCAGSGIAFSRVTMAWSRQAPGKQRELVALITDGNRSAYVDSVKGRFTISRDNTKKTMSLQMNDLKPEDTAVYYCVATDWVPTRRDYWGQGTQVTVSS | 0.058 OD 450 nm | 2.05 OD 450 nm |  |  |  |
